Tested on: hyaluronan present in the circulation
Assay: Plasma HA and catabolites (disaccharide assay) in patients
Format: in vivo, human
Procedure: This Example describes a method for the determination of the HA-disaccharide content in plasma. The method employs the hydrolysis of HA with Chondroitinase ABC to release the HA-disaccharides, derivatize them with 2-amino acridone (AMAC) and analyze them on a reverse-phase HPLC coupled with fluorescence detection. Quantitation of the HA-disaccharides is accomplished by comparison with HA-disaccharide standards.
Next, the sample was hydrolyzed. The sample (e.g. plasma) was prepared by taking approximately 100 μg of protein in a polypropylene tube and adjusting the volume to 340 μl with water. A matrix blank also was prepared by taking dilution buffer (1.59 g HEPES, 5.07 g NaCl, 1800 mL water, pH 7.0) equal to the volume of the sample and adjusting the volume to 340 μl. Hydrolysis of the samples and matrix blank were effected by adding 60 μl of TFA to the sample tube and matrix blank tube and the contents were mix and incubated at 100° C. for 4 hours. The vials were allowed to cool to room temperature. The vials were evaporated to dryness using a speed vac. Then, 300 μl of water was added to each tube and vortexed to resuspend the samples. […]
The enzymatic activity of PEGPH20 was measured by monitoring concentrations of hyaluronan present in the circulation.

B1: PEGPH20 (protein)
chain: LNFRAPPVIPNVPFLWAWNAPSEFCLGKFDEPLDMSLFSFIGSPRINATGQGVTIFYVDRLGYYPYIDSITGVTVNGGIPQKISLQDHLDKAKKDITFYMPVDNLGMAVIDWEEWRPTWARNWKPKDVYKNRSIELVQQQNVQLSLTEATEKAKQEFEKAGKDFLVETIKLGKLLRPNHLWGYYLFPDCYNHHYKKPGYNGSCFNVEIKRNDDLSWLWNESTALYPSIYLNTQQSPVAATLYVRNRVREAIRVSKIPDAKSPLPVFAYTRIVFTDQVLKFLSQDELVYTFGETVALGASGIVIWGTLSIMRSMKSCLLLDNYMETILNPYIINVTLAAKMCSQVLCQEQGVCIRKNWNSSDYLHLNPDNFAIQLEKGGKFTVRGKPTLEDLEQFSEKFYCSCYSTLSCKEKADVKDTDAVDVCIADGVCIDAFLKPPMETEEPQIFY
0.5 μg/kg to 1.5 μg/kg, 12 patients
  HA catabolite levels over a week: increased in a dose-dependent manner
Single 50 μg/kg dose
  plasma concentrations of hyaluronan: increased significantly

From patent US9878046B2, “Adverse side-effects associated with administration of an anti-hyaluronan agent and methods for ameliorating or preventing the side-effects” (Halozyme, Inc., priority 2010, dated 2018)
